From paper PMC11877715, “NONO regulates m^5C modification and alternative splicing of PTEN mRNAs to drive gastric cancer progression” (Journal of Experimental & Clinical Cancer Research : CR, 2025) come the findings set out here.

The assay deals with T1, purified HA-NSUN2 (human, UniProt Q08J23 1-767).
T1 construct: NSUN2, human, in p-GEX-4T-1; The plasmid is called GST-HA-NSUN2, the protein in the assay HA-NSUN2; also called GST-HA-NSUN2; HA-NSUN2 fusion protein; source: E. coli, purified (prepared 'as described previously')
T1 sequence (Q08J23 whole entry, the tested form may be a part): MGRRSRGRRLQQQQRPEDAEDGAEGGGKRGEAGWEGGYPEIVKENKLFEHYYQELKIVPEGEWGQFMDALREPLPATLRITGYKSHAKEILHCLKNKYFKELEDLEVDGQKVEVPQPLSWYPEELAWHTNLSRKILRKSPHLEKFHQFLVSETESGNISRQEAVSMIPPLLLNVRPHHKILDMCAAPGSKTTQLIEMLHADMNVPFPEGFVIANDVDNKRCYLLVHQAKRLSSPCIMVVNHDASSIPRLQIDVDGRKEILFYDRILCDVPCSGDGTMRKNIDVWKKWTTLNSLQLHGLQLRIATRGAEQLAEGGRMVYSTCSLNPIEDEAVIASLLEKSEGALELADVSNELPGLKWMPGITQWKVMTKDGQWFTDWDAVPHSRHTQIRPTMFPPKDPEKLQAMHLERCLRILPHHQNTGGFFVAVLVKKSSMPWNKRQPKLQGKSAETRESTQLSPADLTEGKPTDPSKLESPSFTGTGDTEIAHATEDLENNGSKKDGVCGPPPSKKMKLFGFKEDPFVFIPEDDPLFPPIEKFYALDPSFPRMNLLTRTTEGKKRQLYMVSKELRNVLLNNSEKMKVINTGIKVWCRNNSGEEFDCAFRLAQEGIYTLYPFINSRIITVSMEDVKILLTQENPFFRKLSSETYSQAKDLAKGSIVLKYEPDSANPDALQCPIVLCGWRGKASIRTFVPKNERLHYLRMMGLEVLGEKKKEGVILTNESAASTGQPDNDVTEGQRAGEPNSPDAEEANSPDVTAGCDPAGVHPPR
In words: pull-down; Called GST pull-down; about 100 µg GST-Flag-NONO and HA-NSUN2 incubated overnight with anti-Flag antibody at 4 °C, protein A/G magnetic beads 1 h at room temperature, low-pH elution, Western blot. The note with it: both partners purified. A general note: A western blot detects proteins with antibodies after separation by electrophoresis.

B1: GST-Flag-NONO (natural protein, human, UniProt Q15233 1-471, looked up)
chain: MQSNKTFNLEKQNHTPRKHHQHHHQQQHHQQQQQQPPPPPIPANGQQASSQNEGLTIDLKNFRKPGEKTFTQRSRLFVGNLPPDITEEEMRKLFEKYGKAGEVFIHKDKGFGFIRLETRTLAEIAKVELDNMPLRGKQLRVRFACHSASLTVRNLPQYVSNELLEEAFSVFGQVERAVVIVDDRGRPSGKGIVEFSGKPAARKALDRCSEGSFLLTTFPRPVTVEPMDQLDDEEGLPEKLVIKNQQFHKEREQPPRFAQPGSFEYEYAMRWKALIEMEKQQQDQVDRNIKEAREKLEMEMEAARHEHQVMLMRQDLMRRQEELRRMEELHNQEVQKRKQLELRQEEERRRREEEMRRQQEEMMRRQQEGFKGTFPDAREQEIRMGQMAMGGAMGINNRGAMPPAPVPAGTPAPPGPATMMPDGTLGLTPPTTERFGQAATMEGIGAIGGTPPAFNRAAPGAEFAPNKRRRY
notes: NONO, human, FL, in p-GEX-4T-1; also called GST-tagged Flag-NONO; FLAG-NONO-FL in p-GEX-4T-1; source: E. coli, purified (prepared 'as described previously')
As to B1, the binding result is “binds”.
